Data from paper PMC9561280.

Molecular target: T1, Fur (Pseudomonas aeruginosa PA14) (UniProt Q03456)
T1 sequence: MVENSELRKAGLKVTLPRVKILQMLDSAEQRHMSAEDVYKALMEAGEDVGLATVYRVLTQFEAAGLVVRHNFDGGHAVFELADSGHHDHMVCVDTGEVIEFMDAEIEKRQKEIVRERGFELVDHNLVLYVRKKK
Assay: EMSA
Conditions: 25 mM Tris-HCl pH 7.5, 150 mM NaCl, 20 ul, 4 C 30 min; 10% PAGE in 0.5x TBE; no metal stated

Sequence: CTGGTCGAGTCGATGATGGTGGCCGGGCGCTGAGGCCGGGTTTCCCTCTATAAAACGCCAGCGCTCGTCGCTGGCGTTTTCGTTTCCGCCTGTTCAATTGTCCGCCTCTATGGGGACCATGCTTGTCTTTTGCCAAGAAGAAAACAATAATCAATCTCATTATCGTCTGGTGAGGTTGCC (double strand) [PfagA (Ppa4471)]
- binding: binds
